How the values were obtained:
Experiment in all cases: SPR
[1] = system: L7-1G06-B2 (Artificial Sequence); details: ka 4.6e4 M-1 s-1, kd 1.9e-2 s-1; operator sequence not given for SPR
[2] = target: L7-1F08-A11 (L7A11, EsR A11) (Artificial Sequence) (UniProt P04483); details: ka 7.1e4 M-1 s-1, kd 1.7e-2 s-1; operator sequence not given for SPR
[3] = target: Wt TetR(B) (Tn10) (Escherichia coli) (UniProt P04483); details: ka 3.3e5 M-1 s-1, kd 3.0e-3 s-1; operator sequence not given for SPR
[4] = system: L7-1C03-A5 (EsR1) (Artificial Sequence); details: ka 4.7e4 M-1 s-1, kd 7.8e-3 s-1; operator sequence not given for SPR
[5] = system: L7-3E03-D1 (EsR D01) (Artificial Sequence); details: ka 5.5e4 M-1 s-1, kd 1.1e-2 s-1; operator sequence not given for SPR

Question: Which Kd [1] does the source give for tet operator used for SPR here?
Answer: Its Kd is 430 nM.

Question: What about the Kd [2] of the same substance?
Answer: Its Kd is 250 nM.

Question: And the Kd [3]?
Answer: Its Kd is 9 nM.

Question: What about the Kd [4] of the same substance?
Answer: The Kd was 150 nM.

Question: What about the Kd [5] of the same substance?
Answer: The Kd was 200 nM.

Source: patent US20110287936
